Results published in patent US20210009697A1 (Five Prime, published 2021).

T1: mouse CSF1R (mouse, UniProt P09581 20-511, limits assumed)
T1 construct: In the mNFS60 proliferation assay the receptor is that of the cell line
T1 sequence (looked up): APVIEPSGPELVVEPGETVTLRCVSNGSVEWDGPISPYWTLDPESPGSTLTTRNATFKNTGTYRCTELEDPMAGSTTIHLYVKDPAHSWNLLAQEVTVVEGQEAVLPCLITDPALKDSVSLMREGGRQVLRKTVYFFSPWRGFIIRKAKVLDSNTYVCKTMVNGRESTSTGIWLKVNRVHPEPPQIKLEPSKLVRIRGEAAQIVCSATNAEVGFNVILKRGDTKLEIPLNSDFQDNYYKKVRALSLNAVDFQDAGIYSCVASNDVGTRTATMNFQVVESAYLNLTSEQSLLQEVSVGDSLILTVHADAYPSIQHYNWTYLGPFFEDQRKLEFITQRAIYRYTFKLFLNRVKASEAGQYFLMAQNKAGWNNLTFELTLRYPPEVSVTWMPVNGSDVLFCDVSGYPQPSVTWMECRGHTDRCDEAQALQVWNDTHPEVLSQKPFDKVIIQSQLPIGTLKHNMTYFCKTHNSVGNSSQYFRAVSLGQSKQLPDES

T2: CTLA-4 (human, UniProt P16410 37-162, limits assumed)
T2 construct: also called cytotoxic T lymphocyte antigen-4
T2 sequence (looked up): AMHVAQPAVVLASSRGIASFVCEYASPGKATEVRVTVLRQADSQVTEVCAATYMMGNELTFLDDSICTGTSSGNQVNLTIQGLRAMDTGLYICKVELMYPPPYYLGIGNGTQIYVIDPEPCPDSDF

T3: BTLA (UniProt Q7Z6A9 31-151, limits assumed)
T3 construct: also called B- and T-lymphocyte attenuator
T3 sequence (looked up): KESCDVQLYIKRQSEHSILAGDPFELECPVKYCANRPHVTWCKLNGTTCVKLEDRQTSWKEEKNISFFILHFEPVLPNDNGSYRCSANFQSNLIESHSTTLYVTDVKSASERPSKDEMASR

T4: ICOS (UniProt Q9Y6W8 21-141, limits assumed)
T4 construct: also called inducible co-stimulator
T4 sequence (looked up): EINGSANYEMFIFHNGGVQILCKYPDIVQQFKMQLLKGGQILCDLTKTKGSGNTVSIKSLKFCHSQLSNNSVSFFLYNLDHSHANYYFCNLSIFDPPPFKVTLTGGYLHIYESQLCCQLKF

B1: Cabiralizumab (antibody, human IgG4 S228P, kappa, V domains shown)
VH: QVQLVQSGAEVKKPGSSVKVSCKASGYTFTDNYMIWVRQAPGQGLEWMGDINPYNGGTTFNQKFKGRVTITADKSTSTAYMELSSLRSEDTAVYYCARESPYFSNLYVMDYWGQGTLVTVSS
VL: EIVLTQSPATLSLSPGERATLSCKASQSVDYDGDNYMNWYQQKPGQAPRLLIYAASNLESGIPARFSGSGSGTDFTLTISSLEPEDFAVYYCHLSNEDLSTFGGGTKVEIKR
notes: also called FPA008; HuAb1
B2: Nivolumab (antibody, human IgG4 S228P, kappa, V domains shown)
VH: QVQLVESGGGVVQPGRSLRLDCKASGITFSNSGMHWVRQAPGKGLEWVAVIWYDGSKRYYADSVKGRFTISRDNSKNTLFLQMNSLRAEDTAVYYCATNDDYWGQGTLVTVSS
VL: EIVLTQSPATLSLSPGERATLSCRASQSVSSYLAWYQQKPGQAPRLLIYDASNRATGIPARFSGSGSGTDFTLTISSLEPEDFAVYYCQQSSNWPRTFGQGTKVEIKR
notes: also called Opdivo; 5C4

Columns and labels:
mouse CSF1R = biological target: T1, mouse CSF1R; experiment: not described
[1] = biological target: T5, human colony stimulating factor 1 receptor (CSF1R) (human, UniProt P07333 20-506, limits assumed); experiment: not described
T5 construct: In the monocyte assays the receptor is the endogenous one on primary human monocytes; also called hCSF1R

CTLA-4 = biological target: T2, CTLA-4; experiment: in vitro, method not described
BTLA = biological target: T3, BTLA; experiment: in vitro, method not described
ICOS = biological target: T4, ICOS; experiment: in vitro, method not described

T5 sequence (P07333 20-506 limits assumed): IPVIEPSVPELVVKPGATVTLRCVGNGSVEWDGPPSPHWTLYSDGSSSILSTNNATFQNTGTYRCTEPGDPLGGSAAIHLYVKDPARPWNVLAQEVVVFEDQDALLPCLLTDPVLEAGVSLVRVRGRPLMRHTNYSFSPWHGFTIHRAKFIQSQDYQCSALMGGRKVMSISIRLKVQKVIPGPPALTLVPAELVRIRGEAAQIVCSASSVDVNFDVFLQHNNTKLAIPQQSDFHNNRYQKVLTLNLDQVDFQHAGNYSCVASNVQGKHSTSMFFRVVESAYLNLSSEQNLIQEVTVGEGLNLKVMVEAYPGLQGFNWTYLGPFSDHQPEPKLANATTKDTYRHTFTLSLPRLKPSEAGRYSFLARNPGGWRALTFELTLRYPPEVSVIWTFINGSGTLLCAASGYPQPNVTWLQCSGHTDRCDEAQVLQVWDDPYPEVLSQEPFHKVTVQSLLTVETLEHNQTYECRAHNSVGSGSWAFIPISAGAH

| Binder | binding result (mouse CSF1R) | binding result [1] | binding result (CTLA-4) | binding result (BTLA) | binding result (ICOS) |
| --- | --- | --- | --- | --- | --- |
| B1 | no binding | binds | – | – | – |
| B2 | – | – | no binding | no binding | no binding |
